Reference: the supplement of paper PMC10567573

B1: FAM50A (parent)
chain: KKREKQREQMEQMKQRIAEENIMK
B2: MGC16075 (parent)
chain: AGSRQALSFEVPPCNYDPEKWIQ

Variants of: B1
Assay: protein stability index of a GFP-peptide fusion (GPS, HEK-293T) (PSI 1-6); higher = more stable
Conditions: c terminus: a fixed tail appended
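Note: lentivirally expressed fusions sorted by FACS into six bins by GFP to DsRed ratio, PSI derived from sequencing read proportions per bin multiplied by bin number.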

Row | Variant | protein stability index
1 | R16Q | 4.97
2 | R16V | 5.02
3 | R16K | 4.83
4 | R16C | 4.81
5 | R16S | 5.52
6 | R16G | 5.32
7 | R16A | 5.42
8 | R16T | 5.01
9 | R16P | 5.19
10 | R16Y | 5.15
11 | R16L | 4.51
12 | R16D | 5.56
13 | R16E | 5.53
14 | R16H | 5.09
15 | R16M | 4.89
16 | R16I | 4.71
17 | R16W | 3.94
18 | R16F | 4.52
19 | R16N | 4.67
20 | E19I | 2.92
21 | E19M | 4.09
22 | E19N | 4.34
23 | E19W | 3.66
24 | E19K | 5.08

Row | Variant | protein stability index
25 | E19Y | 4.38
26 | E19L | 3.22
27 | E19R | 4.98
28 | E19H | 4.6
29 | E19T | 4.78
30 | E19A | 4.63
31 | E19S | 4.33
32 | E19D | 4.33
33 | E19Q | 4.72
34 | E19P | 4.19
35 | E19F | 3.71
36 | E19C | 3.9
37 | E19G | 4.78
38 | E19V | 3.47
39 | I22W | 4.63
40 | I22T | 5.46
41 | I22P | 5.12
42 | I22S | 5.33
43 | I22Y | 4.18
44 | I22A | 4.48
45 | I22H | 4.8
46 | I22G | 5.2
47 | I22E | 5.68
48 | I22V | 4.85

Row | Variant | protein stability index
49 | I22F | 3.93
50 | I22M | 5.07
51 | I22L | 4.91
52 | I22K | 4.16
53 | I22Q | 4.75
54 | I22N | 5.12
55 | I22R | 4.92
56 | I22D | 5.54
57 | I22C | 5.22
58 | M23L | 4.49
59 | M23E | 5.25
60 | M23F | 4.32
61 | M23C | 4.83
62 | M23Q | 5.45
63 | M23Y | 4.75
64 | M23H | 4.89
65 | M23I | 4.04
66 | M23D | 5.14
67 | M23V | 5.27
68 | M23K | 4.99
69 | M23R | 3.3
70 | M23A | 4.63
71 | M23T | 4.93
72 | M23W | 4.02

Row | Variant | protein stability index
73 | M23S | 5.28
74 | M23P | 5.46
75 | M23G | 5
76 | M23N | 4.66
77 | Q15G | 4.68
78 | Q15P | 4.9
79 | Q15F | 4.44
80 | Q15W | 4.29
81 | Q15Y | 4.14
82 | Q15R | 4.73
83 | Q15L | 4.7
84 | Q15T | 4.85
85 | Q15N | 4.8
86 | Q15D | 5.02
87 | Q15C | 4.19
88 | Q15K | 4.4
89 | Q15H | 4.84
90 | Q15M | 4.5
91 | Q15E | 5.51
92 | Q15S | 4.9
93 | Q15I | 4.51
94 | Q15V | 4.36
95 | Q15A | 4.67
96 | K14Q | 5.15

Row | Variant | protein stability index
97 | K14L | 4.11
98 | K14R | 4.59
99 | K14M | 4.53
100 | K14A | 5.21
101 | K14D | 5.02
102 | K14I | 4.05
103 | K14G | 5.02
104 | K14W | 3.9
105 | K14Y | 4.39
106 | K14F | 4.32
107 | K14H | 5.01
108 | K14S | 5.06
109 | K14V | 4.63
110 | K14N | 4.86
111 | K14P | 5.67
112 | K14C | 4.57
113 | K14T | 4.3
114 | K14E | 5.01
115 | N21E | 5.12
116 | N21G | 4.75
117 | N21P | 4.85
118 | N21C | 4.63
119 | N21Y | 4.41
120 | N21F | 4.31

Row | Variant | protein stability index
121 | N21R | 4.35
122 | N21W | 3.91
123 | N21H | 4.46
124 | N21V | 4.03
125 | N21D | 5.11
126 | N21K | 5.35
127 | N21I | 4.17
128 | N21A | 4.73
129 | N21S | 4.75
130 | N21T | 4.77
131 | N21L | 3.99
132 | N21M | 4.64
133 | N21Q | 5.48
134 | M13D | 5.13
135 | M13E | 5.5
136 | M13Y | 3.98
137 | M13S | 5.31
138 | M13V | 4.82
139 | M13P | 4.99
140 | M13R | 5.08
141 | M13C | 5.03
142 | M13T | 5.31
143 | M13H | 4.65
144 | M13G | 5.27

Row | Variant | protein stability index
145 | M13F | 4.67
146 | M13Q | 5.26
147 | M13W | 2.63
148 | M13N | 5.21
149 | M13K | 4.77
150 | M13I | 4.29
151 | M13A | 4.95
152 | M13L | 5.37
153 | E11K | 4.5
154 | E11V | 4.66
155 | E11M | 4.17
156 | E11Q | 4.68
157 | E11N | 4.86
158 | E11H | 4.62
159 | E11T | 4.57
160 | E11P | 4.74
161 | E11W | 3.9
162 | E11L | 3.96
163 | E11R | 4.49
164 | E11S | 4.41
165 | E11I | 4.4
166 | E11Y | 4.25
167 | E20C | 4.53
168 | E20H | 4.39

Row | Variant | protein stability index
169 | E20W | 3.47
170 | E20K | 3.96
171 | E20V | 3.74
172 | E20R | 4.48
173 | E20N | 4.44
174 | E20F | 3.79
175 | E20I | 4
176 | E20Y | 3.62
177 | E20A | 4.47
178 | E20M | 3.79
179 | E20G | 4.34
180 | E20D | 4.85
181 | E20S | 3.37
182 | E20P | 4.8
183 | E20Q | 4.17
184 | E20T | 4.85
185 | E20L | 3.84
186 | I17R | 4.77
187 | I17L | 4.92
188 | I17T | 5.3
189 | I17V | 4.87
190 | I17A | 5.39
191 | I17E | 5.1
192 | I17P | 5.52

Row | Variant | protein stability index
193 | I17M | 4.87
194 | I17Q | 5.44
195 | I17H | 5.02
196 | I17C | 4.37
197 | I17K | 4.25
198 | I17S | 5.3
199 | I17W | 4.25
200 | I17F | 5.12
201 | I17G | 5.41
202 | I17Y | 4.46
203 | I17N | 5.2
204 | I17D | 5.3
205 | K24G | 4.99
206 | K24C | 5.14
207 | K24E | 4.85
208 | K24T | 4.95
209 | K24R | 4.16
210 | K24W | 3.77
211 | K24F | 4.39
212 | K24P | 4.46
213 | K24Y | 4.24
214 | K24V | 4.82
215 | K24M | 5.03
216 | K24L | 4.13

Row | Variant | protein stability index
217 | K24I | 4.35
218 | K24A | 4.33
219 | K24S | 4.88
220 | K24D | 5.12
221 | K24N | 4.77
222 | K24Q | 4.86
223 | K24H | 4.97
224 | A18N | 4.93
225 | A18P | 4.79
226 | A18Q | 5.31
227 | A18V | 4.69
228 | A18C | 4.35
229 | A18M | 4.12
230 | A18H | 4.19
231 | A18I | 4.36
232 | A18G | 4.64
233 | A18T | 4.59
234 | A18D | 5.35
235 | A18Y | 4.43
236 | A18F | 4.84
237 | A18W | 4.09
238 | A18K | 3.97
239 | A18L | 4.72
240 | A18R | 4.39

Row | Variant | protein stability index
241 | A18S | 4.78
242 | A18E | 4.62
243 | Q12W | 4.45
244 | Q12Y | 4.55
245 | Q12D | 5.02
246 | Q12V | 5.07
247 | Q12I | 4.63
248 | Q12M | 4.27
249 | Q12R | 4.39
250 | Q12F | 3.71
251 | Q12L | 4.55
252 | Q12K | 4.57
253 | Q12T | 4.7
254 | Q12N | 5.04
255 | Q12H | 4.58
256 | Q12E | 5.28
257 | Q12P | 4.9
258 | Q12S | 4.84
259 | Q12A | 4.44
260 | Q12G | 4.66
261 | Q12C | 5.05

Variants of: B2
Assay: as above
Conditions: c terminus: native

Row | Variant | protein stability index
262 | G2L | 2.27
263 | G2T | 1.95
264 | G2A | 1.77
265 | G2Y | 2.51
266 | G2D | 1.93
267 | G2V | 1.97
268 | G2P | 1.94
269 | G2E | 1.48
270 | G2H | 2.4
271 | G2I | 2.37
272 | G2F | 2.77
273 | G2Q | 2.2
274 | G2W | 1.68
275 | G2R | 2.58
276 | G2M | 2.88
277 | G2N | 2.37
278 | G2K | 2
279 | G2S | 1.75
280 | R4K | 1.72
281 | R4S | 2.21
282 | R4D | 2.41
283 | R4H | 2.67
284 | R4M | 3.08
285 | R4E | 1.83
286 | R4I | 2.7

Row | Variant | protein stability index
287 | R4P | 2.77
288 | R4W | 3.74
289 | R4L | 2.53
290 | R4Q | 1.87
291 | R4A | 2.66
292 | R4C | 1.57
293 | R4G | 1.39
294 | R4F | 2.41
295 | R4V | 2.61
296 | R4T | 2.14
297 | R4N | 1.98
298 | A1N | 2.23
299 | A1H | 1.82
300 | A1L | 1.22
301 | A1W | 3.29
302 | A1I | 1.9
303 | A1C | 1.19
304 | A1M | 1.25
305 | A1D | 2.9
306 | A1R | 2.04
307 | A1E | 2.19
308 | A1G | 1.68
309 | A1T | 2.09
310 | A1F | 3.97
311 | A1P | 2.5

Row | Variant | protein stability index
312 | A1Y | 2.8
313 | A1Q | 2.17
314 | A1K | 2.18
315 | A1S | 1.46
316 | S3C | 1.52
317 | S3A | 1.67
318 | S3F | 4.6
319 | S3T | 1.79
320 | S3H | 2.44
321 | S3E | 1.28
322 | S3R | 1.57
323 | S3L | 1.93
324 | S3I | 1.99
325 | S3Q | 1.6
326 | S3P | 2.18
327 | S3Y | 1.28
328 | S3G | 2.88
329 | S3K | 2.32
330 | S3V | 1.27
331 | S3W | 2.7
332 | S3N | 1.59
333 | S3M | 1.92
334 | S3D | 1.86
